Test results reported in US7067277B1, “Chimeric G proteins and uses thereof” (H. Lundbeck A/S, priority 1999, dated 2006).

Experiments:
Experiment in all cases: Calcium mobilization (FLIPR, Fluo-3) in transfected COS-7 cells
Format in all cases: cell-based
r NTR1 = target: T1, r NTR1 (Rattus norvegicus, UniProt P20789); conditions: r NTR1 + chimera in COS-7; agonist NT, max 1 μM
T1 construct: expressed in transfected cells; host or cells: COS-7
Outline: (§1)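 COS-7 cells were transiently co-transfected (DEAE-dextran) with GPCR and chimeric G protein cDNA, 1:1 for a single chimera or 8:1:1 GPCR:Gαq/z:Gαq/s for the mix, and assayed two days later. Agonist-evoked Fluo-3 fluorescence was read by FLIPR over 3 min at room temperature.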

h GLP-1 = h GLP-1 (Homo sapiens, UniProt P43220); conditions: h GLP-1 + chimera in COS-7; agonist GLP-1, max 10 μM
h GLP-1, sequence (P43220 24-463): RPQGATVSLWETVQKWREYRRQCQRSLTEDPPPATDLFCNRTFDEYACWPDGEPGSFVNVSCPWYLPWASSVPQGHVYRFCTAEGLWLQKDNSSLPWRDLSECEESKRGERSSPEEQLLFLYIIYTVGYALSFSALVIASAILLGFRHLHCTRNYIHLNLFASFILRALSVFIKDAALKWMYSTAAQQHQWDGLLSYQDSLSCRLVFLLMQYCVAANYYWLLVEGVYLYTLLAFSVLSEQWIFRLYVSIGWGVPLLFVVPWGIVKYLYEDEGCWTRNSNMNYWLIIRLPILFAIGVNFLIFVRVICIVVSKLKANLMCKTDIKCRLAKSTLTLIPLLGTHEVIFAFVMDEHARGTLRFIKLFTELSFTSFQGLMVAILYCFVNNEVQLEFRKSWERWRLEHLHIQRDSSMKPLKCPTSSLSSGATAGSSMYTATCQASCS
Outline: as §1

h 5HT1D = h 5HT1D (Homo sapiens, UniProt P28221); conditions: h 5HT1D + chimera in COS-7; agonist 5HT, max 100 μM
h 5HT1D, sequence (P28221 whole entry): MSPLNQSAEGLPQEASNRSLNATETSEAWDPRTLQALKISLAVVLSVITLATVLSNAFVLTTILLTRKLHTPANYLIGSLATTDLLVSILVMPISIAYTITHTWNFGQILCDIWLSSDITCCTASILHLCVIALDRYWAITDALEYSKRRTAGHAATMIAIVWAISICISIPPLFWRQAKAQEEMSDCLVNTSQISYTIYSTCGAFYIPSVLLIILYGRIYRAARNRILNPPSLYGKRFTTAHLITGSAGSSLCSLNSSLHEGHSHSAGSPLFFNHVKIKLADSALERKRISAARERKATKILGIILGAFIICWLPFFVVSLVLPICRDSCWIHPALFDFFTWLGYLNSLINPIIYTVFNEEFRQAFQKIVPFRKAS
Outline: as §1

h Y1 = target: T2, h Y1 (Homo sapiens, UniProt P25929); conditions: h Y1 + chimera in COS-7; agonist NPY, max 10 μM
T2 construct: expressed in transfected cells; host or cells: COS-7
T2 sequence (P25929 1-384): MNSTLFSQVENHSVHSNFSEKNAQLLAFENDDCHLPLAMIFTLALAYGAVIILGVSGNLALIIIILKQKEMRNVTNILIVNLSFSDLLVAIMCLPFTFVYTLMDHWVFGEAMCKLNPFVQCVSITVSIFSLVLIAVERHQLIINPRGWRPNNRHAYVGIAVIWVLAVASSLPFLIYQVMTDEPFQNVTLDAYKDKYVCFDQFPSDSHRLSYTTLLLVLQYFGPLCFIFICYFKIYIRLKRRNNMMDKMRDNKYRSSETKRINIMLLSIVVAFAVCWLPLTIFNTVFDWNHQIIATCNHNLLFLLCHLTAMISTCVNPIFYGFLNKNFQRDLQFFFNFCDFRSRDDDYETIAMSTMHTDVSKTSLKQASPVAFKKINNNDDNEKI
Outline: as §1

h Y5 = target: T3, h Y5 (Homo sapiens, UniProt Q15761); conditions: h Y5 + chimera in COS-7; agonist NPY, max 10 μM
T3 construct: expressed in transfected cells; host or cells: COS-7
T3 sequence (Q15761 1-445): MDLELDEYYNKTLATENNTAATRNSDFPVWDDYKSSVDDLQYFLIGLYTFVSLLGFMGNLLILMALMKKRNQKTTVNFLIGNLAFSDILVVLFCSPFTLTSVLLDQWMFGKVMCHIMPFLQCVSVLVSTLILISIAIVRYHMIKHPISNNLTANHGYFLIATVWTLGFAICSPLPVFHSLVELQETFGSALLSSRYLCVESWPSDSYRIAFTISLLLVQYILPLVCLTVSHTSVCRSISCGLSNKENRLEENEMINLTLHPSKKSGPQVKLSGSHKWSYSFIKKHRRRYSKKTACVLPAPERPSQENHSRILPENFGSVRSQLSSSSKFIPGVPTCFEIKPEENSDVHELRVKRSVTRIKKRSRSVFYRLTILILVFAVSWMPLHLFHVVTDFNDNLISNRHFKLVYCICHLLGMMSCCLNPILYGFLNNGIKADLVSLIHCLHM
Outline: as §1

h D3 = h D3 (Homo sapiens, UniProt P35462); conditions: h D3 + chimera in COS-7; agonist DA, max 100 μM
h D3, sequence (P35462 whole entry): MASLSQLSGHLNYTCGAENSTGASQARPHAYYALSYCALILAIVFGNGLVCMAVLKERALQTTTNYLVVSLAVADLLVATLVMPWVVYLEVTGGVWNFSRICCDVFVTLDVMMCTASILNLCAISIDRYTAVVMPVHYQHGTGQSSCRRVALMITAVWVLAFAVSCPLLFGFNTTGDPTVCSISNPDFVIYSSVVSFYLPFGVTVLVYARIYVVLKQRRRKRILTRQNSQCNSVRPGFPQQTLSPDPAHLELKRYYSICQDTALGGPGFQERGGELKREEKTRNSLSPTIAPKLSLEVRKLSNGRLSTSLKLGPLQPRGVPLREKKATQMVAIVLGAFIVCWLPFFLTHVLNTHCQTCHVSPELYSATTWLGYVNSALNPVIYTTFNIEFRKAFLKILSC
Outline: as §1

h 5HT1B = h 5HT1B (Homo sapiens, UniProt P28222); conditions: h 5HT1B + chimera in COS-7; agonist 5HT, max 100 μM
h 5HT1B, sequence (P28222 whole entry): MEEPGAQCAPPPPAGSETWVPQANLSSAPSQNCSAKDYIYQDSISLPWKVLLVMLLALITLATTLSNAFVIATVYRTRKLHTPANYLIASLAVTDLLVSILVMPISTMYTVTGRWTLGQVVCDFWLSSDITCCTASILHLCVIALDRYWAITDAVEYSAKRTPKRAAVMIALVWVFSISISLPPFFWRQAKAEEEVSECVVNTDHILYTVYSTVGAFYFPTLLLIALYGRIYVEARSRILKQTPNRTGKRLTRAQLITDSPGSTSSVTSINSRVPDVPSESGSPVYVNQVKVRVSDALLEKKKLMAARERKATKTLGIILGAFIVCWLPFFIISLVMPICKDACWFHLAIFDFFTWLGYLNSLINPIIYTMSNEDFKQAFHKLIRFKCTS
Outline: as §1

h 5HT1A = target: T4, h 5HT1A (Homo sapiens, UniProt P08908); conditions: h 5HT1A + chimera in COS-7; agonist 5HT, max 100 μM
T4 sequence (P08908 1-422): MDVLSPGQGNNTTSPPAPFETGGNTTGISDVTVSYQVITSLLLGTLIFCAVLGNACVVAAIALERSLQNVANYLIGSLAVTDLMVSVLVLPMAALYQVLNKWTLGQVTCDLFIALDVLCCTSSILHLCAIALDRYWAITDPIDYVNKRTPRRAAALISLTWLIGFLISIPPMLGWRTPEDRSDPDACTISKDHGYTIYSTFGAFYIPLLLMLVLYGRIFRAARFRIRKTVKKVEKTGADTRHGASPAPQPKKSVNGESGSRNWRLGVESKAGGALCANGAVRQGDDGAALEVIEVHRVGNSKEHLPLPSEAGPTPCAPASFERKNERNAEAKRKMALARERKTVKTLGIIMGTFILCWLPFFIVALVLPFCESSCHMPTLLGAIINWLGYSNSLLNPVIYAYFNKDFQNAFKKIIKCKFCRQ
Outline: as §1

T1 sequence (P20789 whole entry): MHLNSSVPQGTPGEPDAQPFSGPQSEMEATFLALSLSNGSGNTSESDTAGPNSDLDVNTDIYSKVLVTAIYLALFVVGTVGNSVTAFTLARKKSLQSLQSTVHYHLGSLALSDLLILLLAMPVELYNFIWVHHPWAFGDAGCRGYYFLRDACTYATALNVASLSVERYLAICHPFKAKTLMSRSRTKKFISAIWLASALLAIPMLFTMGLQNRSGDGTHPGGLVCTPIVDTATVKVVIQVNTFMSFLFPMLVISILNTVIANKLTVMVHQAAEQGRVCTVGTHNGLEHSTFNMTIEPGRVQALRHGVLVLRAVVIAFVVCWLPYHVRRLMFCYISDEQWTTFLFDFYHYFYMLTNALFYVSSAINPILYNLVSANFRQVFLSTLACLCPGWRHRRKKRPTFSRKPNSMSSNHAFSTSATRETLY

B1: cGαq/z5: chimeric Gα subunit: C-terminal final 5 amino acids of C. elegans Gαq replaced with those of hGαz (SEQ ID NO: 1) (protein)
chain: MACCLSEEAREQKRINQEIEKQLQRDKRNARRELKLLLLGTGESGKSTFIKQMRIIHGQGYSEEDKRAHIRLVYQNVFMAIQSMIRAMDTLDIKFGNESEELQEKAAVVREVDFESVTSFEEPYVSYIKELWEDSGIQECYDRRREYQLTDSAKYYLSDLRRLAVPDYLPTEQDILRVRVPTTGIIEYPFDLEQIIFRMVDVGGQRSERRKWIHCFENVTSIMFLVALSEYDQVLVECDNENRMEESKALFRTIITYPWFTNSSVILFLNKKDLLEEKILYSHLADYFPEYDGPPRDPIAAREFILKMFVDLNPDADKIIYSHFTCATDTENIRFVFAAVKDTILQHNLKYIGLC
modifications: C. elegans
With B1 the “MAXIMAL SIGNAL (FLUORESCENCE UNITS)” value (r NTR1) was 14476 fluorescence units, the “MAXIMAL SIGNAL (FLUORESCENCE UNITS)” value (h GLP-1) was 131 fluorescence units and the “MAXIMAL SIGNAL (FLUORESCENCE UNITS)” value (h 5HT1D) was 414 fluorescence units. For the same molecule, the “MAXIMAL SIGNAL (FLUORESCENCE UNITS)” value (h Y1) was 7722 fluorescence units, the “MAXIMAL SIGNAL (FLUORESCENCE UNITS)” value (h Y5) was 5314 fluorescence units and the “MAXIMAL SIGNAL (FLUORESCENCE UNITS)” value (h D3) was 0 fluorescence units. The “MAXIMAL SIGNAL (FLUORESCENCE UNITS)” value (h 5HT1B) was 929 fluorescence units and the “MAXIMAL SIGNAL (FLUORESCENCE UNITS)” value (h 5HT1A) was 1997 fluorescence units.

B2: cGαq/z9: C. elegans Gαq with Gαz portion of the C-terminal tail extended to 9 amino acids (SEQ ID NO: 2) (protein)
chain: MACCLSEEAREQKRINQEIEKQLQRDKRNARRELKLLLLGTGESGKSTFIKQMRIIHGQGYSEEDKRAHIRLVYQNVFMAIQSMIRAMDTLDIKFGNESEELQEKAAVVREVDFESVTSFEEPYVSYIKELWEDSGIQECYDRRREYQLTDSAKYYLSDLRRLAVPDYLPTEQDILRVRVPTTGIIEYPFDLEQIIFRMVDVGGQRSERRKWIHCFENVTSIMFLVALSEYDQVLVECDNENRMEESKALFRTIITYPWFTNSSVILFLNKKDLLEEKILYSHLADYFPEYDGPPRDPIAAREFILKMFVDLNPDADKIIYSHFTCATDTENIRFVFAAVKDTILQNNLKYIGLC
modifications: C. elegans
B2 was tested, and the “MAXIMAL SIGNAL (FLUORESCENCE UNITS)” value (r NTR1) was 6111 fluorescence units, the “MAXIMAL SIGNAL (FLUORESCENCE UNITS)” value (h GLP-1) was 135 fluorescence units and the “MAXIMAL SIGNAL (FLUORESCENCE UNITS)” value (h 5HT1D) was 504 fluorescence units. The “MAXIMAL SIGNAL (FLUORESCENCE UNITS)” value (h Y1) was 6728 fluorescence units, the “MAXIMAL SIGNAL (FLUORESCENCE UNITS)” value (h Y5) was 6680 fluorescence units and the “MAXIMAL SIGNAL (FLUORESCENCE UNITS)” value (h D3) was 121 fluorescence units. The “MAXIMAL SIGNAL (FLUORESCENCE UNITS)” value (h 5HT1B) was 1217 fluorescence units and the “MAXIMAL SIGNAL (FLUORESCENCE UNITS)” value (h 5HT1A) was 3139 fluorescence units.
